The results in this text go back to EP1557432B1.

The test has as its target TBP-hCGβ(20-190). Kind of test: sandwich immunoassay for the hCG heterodimer (anti-hCG β capture, anti-TSH α detection), COS-7 cotransfection of α and β fusions.

Consider TBP-hCGα(20-190), for which the Concentration (ng/ml) of heterodimer in hCG heterodimer assay was determined as 38 ng/mL.
